Assay in all cases: cryo-EM structure
Assay [1] concerns the target BG505 SOSIP MD39 (HIV (BG505 genotype, clade A)).
Assay [2] addresses BG505 SOSIP.v5.2 N241/N289 (HIV (BG505 genotype, clade A)).
The target in assay [3] is BG505 SOSIP.v5.2(7S) N241/N289 (HIV (BG505 genotype, clade A)).

Substance BG505 SOSIP MD39 (domain or fragment) had a stoichiometry N in assay [1] of 3. The substance “BG505 SOSIP.v5.2 N241/N289 (domain or fragment)” returned a stoichiometry N in assay [2] of 3.

“BG505 SOSIP.v5.2(7S) N241/N289 (domain or fragment)”: the stoichiometry N in assay [3] amounted to 3.

As usually defined, the stoichiometry N is a count of units in the complex or per binding partner.

(Values after article PMC8355326.)
